Experimental data from US20040132160A1 (University of Texas, published 2004).

Key:
[1] = biological target: T1, MURF-1 (Muscle RING Finger 1), native protein without epitope tag (murine, UniProt Q9ERP3 1-366); test: immunofluorescence in cotransfected Hela cells, legend of FIGS. 6B-D
T1 construct: 366 amino acid protein, 41 kDa; also called endogenous MURF-1; native MURF-1
T1 sequence: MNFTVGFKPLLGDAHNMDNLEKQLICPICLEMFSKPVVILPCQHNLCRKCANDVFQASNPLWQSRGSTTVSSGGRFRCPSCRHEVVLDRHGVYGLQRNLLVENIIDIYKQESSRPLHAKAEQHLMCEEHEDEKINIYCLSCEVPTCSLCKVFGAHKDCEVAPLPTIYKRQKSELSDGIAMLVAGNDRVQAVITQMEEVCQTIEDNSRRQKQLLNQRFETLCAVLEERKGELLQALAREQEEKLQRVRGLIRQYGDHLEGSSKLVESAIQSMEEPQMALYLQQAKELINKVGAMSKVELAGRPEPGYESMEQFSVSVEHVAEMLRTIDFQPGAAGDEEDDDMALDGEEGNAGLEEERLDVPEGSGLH
From the text: (§1) The leucine-rich coiled-coil domain mediates homo-oligomerization of MURF-1. FIGS. 6B-D. MURF-1 binds to microtubules in a homo-oligomeric form. Hela Cells were transfected with Flag-tagged full-length MURF alone (FIG. 6B) or in combination with myc-tagged MURF-1 (FIGS. 6C and 6D) and immunofluorescence performed. Flag-tagged MURF-1 forms aggregates in the cytoplasm of the cell. In the presence of myc-tagged MURF-1, the Flag-tagged MURF-1 and myc-tagged MURF-1 are colocalized in filamentous structures in the cell. Identical results were obtained using native MURF-1 lacking an epitope tag.
For immunofluorescence, cells were extracted with 1% Triton X-100 in PBS for 1 minute, washed twice in PBS, and fixed for 15 minutes in 3.7% formalin in PBS. Cells were then washed three times in PBS and blocked in PBS containing 3% Bovine Serum Albumin and 0.1% NP40 for 30 minutes. All antibodies were incubated in fresh block solution for 60 minutes at ambient temperature. Myc-tagged versions of MURF-1 were detected using antibody 9E10 (Santa Cruz) at a dilution of 1:250. Flag-tagged versions of MURF-1 were detected using the M2 Flag antibody at a dilution of 1:500 (Kodak). Microtubules were detected using alpha-tubulin antibody at a dilution of 1:2000 (Sigma). Intermediate filaments were visualized using vimentin antibody at a dilution of 1:500 (Sigma). […]

[2] = biological target: T2, full-length MURF-1 with C-terminal myc tag (murine, UniProt Q9ERP3 1-366); test: co-immunoprecipitation of 35S-labeled in vitro translated myc-tagged and Flag-tagged MURF-1 with Flag antibody M2
T2 construct: Expressed in transfected cells (Hela, Cos, 293T and others) or translated in vitro with 35S-methionine; also called myc-tagged MURF-1; myc-tagged MURF; not shown: C-terminal myc/HIS tag of vector pcDNA3.1 myc/HIS (Invitrogen)
T2 sequence: T1 sequence
From the text: as §1, with “FIGS. 6A-6D—Mapping domains of MURF-1 required for homo-oligomerization. FIG. 6A. Various forms of N-terminal Flag-tagged MURF-1 and full-length C-terminal myc-tagged MURF-1 were in vitro translated in the presence of ³⁵S-methionine and immunoprecipitation performed as described in Material and Methods. The” for “The”
In vitro transcription/translation was performed as directed by the manufacturer (Promega). Plasmids used were C-terminally myc-tagged full-length MURF-1 and various Flag-tagged deletions of MURF-1. Immunoprecipitations were performed using ³⁵S-methionine-labelled in vitro translation products. Briefly, ³⁵S-methionine-labelled products were incubated with agitation in 1 ml of immunoprecipitation buffer (PBS, 0.5% Triton X-100, 0.25 mM zinc sulphate) at 4° C. for 2 hours. […]

B1: full-length MURF-1 with N-terminal Flag tag (other)
chain: T1 sequence
notes: Translated in vitro with 35S-methionine for immunoprecipitation, or expressed in Hela cells; also called Flag-tagged MURF-1; Flag-MURF-1; not shown: N-terminal Flag tag (vector pECE-Flag, subcloned into pcDNA3.1)
B1: binds [1]; binds [2].
